Data from IntAct's records for PubMed 31515488.

B1: Isoform 1 of Mothers against decapentaplegic homolog 3 (Homo sapiens), P84022-1 (parent)
chain: MSSILPFTPPIVKRLLGWKKGEQNGQEEKWCEKAVKSLVKKLKKTGQLDELEKAITTQNVNTKCITIPRSLDGRLQVSHRKGLPHVIYCRLWRWPDLHSHHELRAMELCEFAFNMKKDEVCVNPYHYQRVETPVLPPVLVPRHTEIPAEFPPLDDYSHSIPENTNFPAGIEPQSNIPETPPPGYLSEDGETSDHQMNHSMDAGSPNLSPNPMSPAHNNLDLQPVTYCEPAFWCSISYYELNQRVGETFHASQPSMTVDGFTDPSNSERFCLGLLSNVNRNAAVELTRRHIGRGVRLYYIGGEVFAECLSDSAIFVQSPNCNQRYGWHPATVCKIPPGCNLKIFNNQEFAALLAQSVNQGFEAVYQLTRMCTIRMSFVKGWGAEYRRQTVTSTPCWIELHLNGPLQWLDKVLTQMGSPSIRCSSVS
partner: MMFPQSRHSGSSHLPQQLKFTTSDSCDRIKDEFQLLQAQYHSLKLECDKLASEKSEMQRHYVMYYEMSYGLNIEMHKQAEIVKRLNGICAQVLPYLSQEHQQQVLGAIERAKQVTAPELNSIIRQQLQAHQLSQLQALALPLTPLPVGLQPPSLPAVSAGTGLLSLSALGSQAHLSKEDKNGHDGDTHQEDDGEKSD
B2: Angiomotin (Homo sapiens), Q4VCS5 (parent)
chain: MRNSEEQPSGGTTVLQRLLQEQLRYGNPSENRSLLAIHQQATGNGPPFPSGSGNPGPQSDVLSPQDHHQQLVAHAARQEPQGQEIQSENLIMEKQLSPRMQNNEELPTYEEAKVQSQYFRGQQHASVGAAFYVTGVTNQKMRTEGRPSVQRLNPGKMHQDEGLRDLKQGHVRSLSERLMQMSLATSGVKAHPPVTSAPLSPPQPNDLYKNPTSSSEFYKAQGPLPNQHSLKGMEHRGPPPEYPFKGMPPQSVVCKPQEPGHFYSEHRLNQPGRTEGQLMRYQHPPEYGAARPAQDISLPLSARNSQPHSPTSSLTSGGSLPLLQSPPSTRLSPARHPLVPNQGDHSAHLPRPQQHFLPNQAHQGDHYRLSQPGLSQQQQQQQQQHHHHHHHQQQQQQQPQQQPGEAYSAMPRAQPSSASYQPVPADPFAIVSRAQQMVEILSDENRNLRQELEGCYEKVARLQKVETEIQRVSEAYENLVKSSSKREALEKAMRNKLEGEIRRMHDFNRDLRERLETANKQLAEKEYEGSEDTRKTISQLFAKNKESQREKEKLEAELATARSTNEDQRRHIEIRDQALSNAQAKVVKLEEELKKKQVYVDKVEKMQQALVQLQAACEKREQLEHRLRTRLERELESLRIQQRQGNCQPTNVSEYNAAALMELLREKEERILALEADMTKWEQKYLEENVMRHFALDAAATVAAQRDTTVISHSPNTSYDTALEARIQKEEEEILMANKRCLDMEGRIKTLHAQIIEKDAMIKVLQQRSRKEPSKTEQLSCMRPAKSLMSISNAGSGLLSHSSTLTGSPIMEEKRDDKSWKGSLGILLGGDYRAEYVPSTPSPVPPSTPLLSAHSKTGSRDCSTQTERGTESNKTAAVAPISVPAPVAAAATAAAITATAATITTTMVAAAPVAVAAAAAPAAAAAPSPATAAATAAAVSPAAAGQIPAAASVASAAAVAPSAAAAAAVQVAPAAPAPVPAPALVPVPAPAAAQASAPAQTQAPTSAPAVAPTPAPTPTPAVAQAEVPASPATGPGPHRLSIPSLTCNPDKTDGPVFHSNTLERKTPIQILGQEPDAEMVEYLI
partner: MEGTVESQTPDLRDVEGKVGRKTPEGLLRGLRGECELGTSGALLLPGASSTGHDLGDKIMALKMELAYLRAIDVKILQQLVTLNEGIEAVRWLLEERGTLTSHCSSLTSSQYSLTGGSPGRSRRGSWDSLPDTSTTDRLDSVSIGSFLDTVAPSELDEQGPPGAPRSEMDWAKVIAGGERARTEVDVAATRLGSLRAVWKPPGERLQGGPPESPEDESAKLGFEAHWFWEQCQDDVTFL
B3: Splicing factor 45 (Homo sapiens), Q96I25 (parent)
chain: MSLYDDLGVETSDSKTEGWSKNFKLLQSQLQVKKAALTQAKSQRTKQSTVLAPVIDLKRGGSSDDRQIVDTPPHVAAGLKDPVPSGFSAGEVLIPLADEYDPMFPNDYEKVVKRQREERQRQRELERQKEIEEREKRRKDRHEASGFARRPDPDSDEDEDYERERRKRSMGGAAIAPPTSLVEKDKELPRDFPYEEDSRPRSQSSKAAIPPPVYEEQDRPRSPTGPSNSFLANMGGTVAHKIMQKYGFREGQGLGKHEQGLSTALSVEKTSKRGGKIIVGDATEKDASKKSDSNPLTEILKCPTKVVLLRNMVGAGEVDEDLEVETKEECEKYGKVGKCVIFEIPGAPDDEAVRIFLEFERVESAIKAVVDLNGRYFGGRVVKACFYNLDKFRVLDLAEQV
B4: Pachytene checkpoint protein 2 homolog (Homo sapiens), Q15645 (parent)
chain: MDEAVGDLKQALPCVAESPTVHVEVHQRGSSTAKKEDINLSVRKLLNRHNIVFGDYTWTEFDEPFLTRNVQSVSIIDTELKVKDSQPIDLSACTVALHIFQLNEDGPSSENLEEETENIIAANHWVLPAAEFHGLWDSLVYDVEVKSHLLDYVMTTLLFSDKNVNSNLITWNRVVLLHGPPGTGKTSLCKALAQKLTIRLSSRYRYGQLIEINSHSLFSKWFSESGKLVTKMFQKIQDLIDDKDALVFVLIDEVESLTAARNACRAGTEPSDAIRVVNAVLTQIDQIKRHSNVVILTTSNITEKIDVAFVDRADIKQYIGPPSAAAIFKIYLSCLEELMKCQIIYPRQQLLTLRELEMIGFIENNVSKLSLLLNDISRKSEGLSGRVLRKLPFLAHALYVQAPTVTIEGFLQALSLAVDKQFEERKKLAAYI
B5: mRNA-decapping enzyme 1A (Homo sapiens), Q9NPI6 (parent)
chain: MEALSRAGQEMSLAALKQHDPYITSIADLTGQVALYTFCPKANQWEKTDIEGTLFVYRRSASPYHGFTIVNRLNMHNLVEPVNKDLEFQLHEPFLLYRNASLSIYSIWFYDKNDCHRIAKLMADVVEEETRRSQQAARDKQSPSQANGCSDHRPIDILEMLSRAKDEYERNQMGDSNISSPGLQPSTQLSNLGSTETLEEMPSGSQDKSAPSGHKHLTVEELFGTSLPKEQPAVVGLDSEEMERLPGDASQKEPNSFLPFPFEQLGGAPQSETLGVPSAAHHSVQPEITTPVLITPASITQSNEKHAPTYTIPLSPVLSPTLPAEAPTAQVPPSLPRNSTMMQAVKTTPRQRSPLLNQPVPELSHASLIANQSPFRAPLNVTNTAGTSLPSVDLLQKLRLTPQHDQIQTQPLGKGAMVASFSPAAGQLATPESFIEPPSKTAAARVAASASLSNMVLAPLQSMQQNQDPEVFVQPKVLSSAIPVAGAPLVTATTTAVSSVLLAPSVFQQTVTRSSDLERKASSPSPLTIGTPESQRKPSIILSKSQLQDTLIHLIKNDSSFLSTLHEVYLQVLTKNKDNHNL
partner: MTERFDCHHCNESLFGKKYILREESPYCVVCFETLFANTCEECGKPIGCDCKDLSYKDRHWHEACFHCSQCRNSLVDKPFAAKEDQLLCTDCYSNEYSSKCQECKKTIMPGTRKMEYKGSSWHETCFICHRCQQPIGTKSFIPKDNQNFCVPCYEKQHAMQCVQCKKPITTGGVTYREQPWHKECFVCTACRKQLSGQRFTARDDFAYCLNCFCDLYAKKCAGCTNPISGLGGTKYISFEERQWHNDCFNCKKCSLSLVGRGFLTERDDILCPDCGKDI
B6: Farnesyl pyrophosphate synthase (Homo sapiens), P14324 (parent)
chain: MPLSRWLRSVGVFLLPAPYWAPRERWLGSLRRPSLVHGYPVLAWHSARCWCQAWTEEPRALCSSLRMNGDQNSDVYAQEKQDFVQHFSQIVRVLTEDEMGHPEIGDAIARLKEVLEYNAIGGKYNRGLTVVVAFRELVEPRKQDADSLQRAWTVGWCVELLQAFFLVADDIMDSSLTRRGQICWYQKPGVGLDAINDANLLEACIYRLLKLYCREQPYYLNLIELFLQSSYQTEIGQTLDLLTAPQGNVDLVRFTEKRYKSIVKYKTAFYSFYLPIAAAMYMAGIDGEKEHANAKKILLEMGEFFQIQDDYLDLFGDPSVTGKIGTDIQDNKCSWLVVQCLQRATPEQYQILKENYGQKEAEKVARVKALYEELDLPAVFLQYEEDSYSHIMALIEQYAAPLPPAVFLGLARKIYKRRK
partner: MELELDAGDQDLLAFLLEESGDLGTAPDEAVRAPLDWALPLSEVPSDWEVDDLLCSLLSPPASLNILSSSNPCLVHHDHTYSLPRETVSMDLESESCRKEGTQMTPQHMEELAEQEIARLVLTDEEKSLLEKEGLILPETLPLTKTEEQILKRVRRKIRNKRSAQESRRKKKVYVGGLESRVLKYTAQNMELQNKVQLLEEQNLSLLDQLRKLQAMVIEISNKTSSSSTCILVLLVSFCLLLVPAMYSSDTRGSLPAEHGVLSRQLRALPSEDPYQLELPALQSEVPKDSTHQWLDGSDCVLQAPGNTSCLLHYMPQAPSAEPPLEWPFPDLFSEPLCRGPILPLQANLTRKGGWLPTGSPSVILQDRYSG
B7: Vacuolar protein-sorting-associated protein 25 (Homo sapiens), Q9BRG1 (parent)
chain: MAMSFEWPWQYRFPPFFTLQPNVDTRQKQLAAWCSLVLSFCRLHKQSSMTVMEAQESPLFNNVKLQRKLPVESIQIVLEELRKKGNLEWLDKSKSSFLIMWRRPEEWGKLIYQWVSRSGQNNSVFTLYELTNGEDTEDEEFHGLDEATLLRALQALQQEHKAEIITVSDGRGVKFF
partner: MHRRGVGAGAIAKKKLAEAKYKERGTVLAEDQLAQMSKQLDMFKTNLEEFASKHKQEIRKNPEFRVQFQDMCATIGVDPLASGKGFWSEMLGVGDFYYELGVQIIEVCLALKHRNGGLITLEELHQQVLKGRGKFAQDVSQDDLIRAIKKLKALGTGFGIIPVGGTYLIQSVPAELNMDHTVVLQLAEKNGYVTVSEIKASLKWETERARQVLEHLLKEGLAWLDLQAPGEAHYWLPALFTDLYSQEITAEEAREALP
B8: KH domain-containing, RNA-binding, signal transduction-associated protein 2 (Homo sapiens), Q5VWX1 (parent)
chain: MEEEKYLPELMAEKDSLDPSFVHASRLLAEEIEKFQGSDGKKEDEEKKYLDVISNKNIKLSERVLIPVKQYPKFNFVGKLLGPRGNSLKRLQEETGAKMSILGKGSMRDKAKEEELRKSGEAKYAHLSDELHVLIEVFAPPGEAYSRMSHALEEIKKFLVPDYNDEIRQEQLRELSYLNGSEDSGRGRGIRGRGIRIAPTAPSRGRGGAIPPPPPPGRGVLTPRGSTVTRGALPVPPVARGVPTPRARGAPTVPGYRAPPPPAHEAYEEYGYDDGYGGEYDDQTYETYDNSYATQTQSVPEYYDYGHGVSEDAYDSYAPEEWATTRSSLKAPPQRSARGGYREHPYGRY

Variants of: B1
Conditions: with tle5_human TLE5, Q08117

| Variant | effect of a mutation on the interaction |
| --- | --- |
| P393L | disrupting interaction strength |

Variants of: B2
Conditions: with lura1_human LURAP1, Q96LR2

| Variant | effect of a mutation on the interaction |
| --- | --- |
| T899A | with no effect |

Variants of: B3
Conditions: with sat1_human SAT1, P21673
sat1_human SAT1, P21673, sequence (P21673 whole entry): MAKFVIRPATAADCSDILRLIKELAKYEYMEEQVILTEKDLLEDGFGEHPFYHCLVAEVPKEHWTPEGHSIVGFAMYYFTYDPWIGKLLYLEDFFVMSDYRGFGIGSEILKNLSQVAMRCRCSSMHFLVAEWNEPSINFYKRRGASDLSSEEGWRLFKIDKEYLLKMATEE

| Variant | effect of a mutation on the interaction |
| --- | --- |
| T224I | with no effect |

Variants of: B4
Conditions: with meak7_human MEAK7, Q6P9B6
meak7_human MEAK7, Q6P9B6, sequence (Q6P9B6 whole entry): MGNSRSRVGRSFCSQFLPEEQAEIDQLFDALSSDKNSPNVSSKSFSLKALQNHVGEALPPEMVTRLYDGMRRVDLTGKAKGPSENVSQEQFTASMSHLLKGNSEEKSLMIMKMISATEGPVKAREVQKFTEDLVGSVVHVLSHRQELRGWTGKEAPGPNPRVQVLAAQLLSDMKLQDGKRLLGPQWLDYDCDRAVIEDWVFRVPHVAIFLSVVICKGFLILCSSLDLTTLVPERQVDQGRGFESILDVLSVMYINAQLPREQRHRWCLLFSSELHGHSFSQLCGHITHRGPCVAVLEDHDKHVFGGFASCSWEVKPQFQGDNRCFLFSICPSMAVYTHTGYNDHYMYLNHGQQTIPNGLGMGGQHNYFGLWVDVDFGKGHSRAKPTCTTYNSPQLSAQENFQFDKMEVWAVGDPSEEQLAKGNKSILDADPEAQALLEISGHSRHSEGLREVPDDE

| Variant | effect of a mutation on the interaction |
| --- | --- |
| G409E | with no effect |

Variants of: B4
Conditions: with fnd3b_human FNDC3B

| Variant | effect of a mutation on the interaction |
| --- | --- |
| G409E | with no effect |

Variants of: B5
Conditions: with fhl2_human FHL2, Q14192

| Variant | effect of a mutation on the interaction |
| --- | --- |
| Q474H | with no effect |
| A297G | with no effect |
| P332T | with no effect |

Variants of: B6
Conditions: with creb3_human CREB3, O43889

| Variant | effect of a mutation on the interaction |
| --- | --- |
| R150Q | with no effect |

Variants of: B7
Conditions: with snf8_human SNF8, Q96H20

| Variant | effect of a mutation on the interaction |
| --- | --- |
| I76V | with no effect |

Variants of: B8
Conditions: with ews_human EWSR1, Q01844
ews_human EWSR1, Q01844, sequence (Q01844 whole entry): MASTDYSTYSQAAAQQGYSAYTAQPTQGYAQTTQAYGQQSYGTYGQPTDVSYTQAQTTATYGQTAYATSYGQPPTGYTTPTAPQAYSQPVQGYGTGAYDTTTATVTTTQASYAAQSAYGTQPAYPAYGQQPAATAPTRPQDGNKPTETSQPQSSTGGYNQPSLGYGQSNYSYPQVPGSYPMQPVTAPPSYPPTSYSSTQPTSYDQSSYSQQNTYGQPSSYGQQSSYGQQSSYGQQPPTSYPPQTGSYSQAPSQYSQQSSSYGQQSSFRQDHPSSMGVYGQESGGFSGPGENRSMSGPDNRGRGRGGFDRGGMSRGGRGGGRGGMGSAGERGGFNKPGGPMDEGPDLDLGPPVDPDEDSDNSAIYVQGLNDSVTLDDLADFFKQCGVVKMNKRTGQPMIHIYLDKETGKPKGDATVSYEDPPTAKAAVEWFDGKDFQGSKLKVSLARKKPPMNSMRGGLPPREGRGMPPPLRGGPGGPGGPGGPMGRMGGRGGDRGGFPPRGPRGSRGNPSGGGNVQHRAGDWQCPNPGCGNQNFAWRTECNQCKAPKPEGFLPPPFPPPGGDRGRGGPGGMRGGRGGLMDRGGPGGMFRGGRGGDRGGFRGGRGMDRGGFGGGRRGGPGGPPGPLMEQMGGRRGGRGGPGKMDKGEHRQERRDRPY

| Variant | effect of a mutation on the interaction |
| --- | --- |
| P333L | with no effect |

Variants of: B8
Conditions: with ptk6_human PTK6, Q13882

| Variant | effect of a mutation on the interaction |
| --- | --- |
| P333L | with no effect |

Variants of: B8
Conditions: with hbaz_human HBZ

| Variant | effect of a mutation on the interaction |
| --- | --- |
| P333L | with no effect |
